Values quoted from earlier work in article PMC11820823.

What was measured:
EphA2 Sam (Mus musculus) = EphA2 Sam (Mus musculus) (UniProt Q03145)
EphA8 Sam (Mus musculus) = EphA8 Sam (Mus musculus) (UniProt O09127); assay: ITC
EphA2 Sam (Homo sapiens) = EphA2 Sam (Homo sapiens) (UniProt P29317)
EphA2 Sam (Homo sapiens), sequence (P29317 901-971): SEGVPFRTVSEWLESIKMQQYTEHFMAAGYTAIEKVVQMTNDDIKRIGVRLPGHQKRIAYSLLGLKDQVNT

SASH1 SH3-Sam1, sequence (P59808 547-690): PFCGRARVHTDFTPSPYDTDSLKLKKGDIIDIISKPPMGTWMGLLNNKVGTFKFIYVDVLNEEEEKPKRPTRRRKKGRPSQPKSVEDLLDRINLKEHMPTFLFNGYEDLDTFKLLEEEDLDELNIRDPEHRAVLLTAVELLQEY
EphA8 Sam (Mus musculus), sequence (O09127 926-996): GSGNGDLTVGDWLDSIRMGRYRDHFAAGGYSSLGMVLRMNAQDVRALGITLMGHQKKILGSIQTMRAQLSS
Ship2 Sam, sequence (O15357 1193-1258): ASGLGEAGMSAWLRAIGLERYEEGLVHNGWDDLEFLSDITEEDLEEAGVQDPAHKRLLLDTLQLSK
SASH1 Sam1, sequence (P59808 623-693): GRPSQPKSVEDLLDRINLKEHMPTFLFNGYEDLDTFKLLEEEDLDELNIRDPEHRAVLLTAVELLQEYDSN
EphA2 Sam (Mus musculus), sequence (Q03145 902-972): as the sequence (P29317 901-971) above, with A27V, T40S, D42E counted along it

Substance | Kd (EphA2 Sam (Mus musculus)) | Kd (EphA8 Sam (Mus musculus)) | Kd (EphA2 Sam (Homo sapiens))
SASH1 SH3-Sam1 (from UniProt P59808) | 2520 nM | 1090 nM | –
SASH1 Sam1 (from UniProt P59808) | – | 880 nM | –
Ship2 Sam (from UniProt O15357) | – | – | 750 nM
